Paper PMC9482650, “Quantitative fragmentomics allow affinity mapping of interactomes” (Nature Communications, 2022)

Assays:
Test in all cases: holdup assay
Design in all cases: key: below the threshold = too weak to quantify, mostly under pKd 3.1 to 4
[1] = target: T1, APBA2_1, Q99767
T1 sequence (Q99767 563-664, limits assumed, looked up): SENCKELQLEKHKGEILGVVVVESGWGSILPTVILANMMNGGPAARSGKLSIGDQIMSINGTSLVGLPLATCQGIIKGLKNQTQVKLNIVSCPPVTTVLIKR

[2] = target: T2, APBA3_1, O96018
T2 sequence (O96018 389-490, limits assumed, looked up): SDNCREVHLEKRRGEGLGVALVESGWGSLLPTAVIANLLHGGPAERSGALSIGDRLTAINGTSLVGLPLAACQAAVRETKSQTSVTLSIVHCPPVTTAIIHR

[3] = target: T3, CARD11, Q9BXL7
T3 sequence (Q9BXL7 662-765, limits assumed, looked up): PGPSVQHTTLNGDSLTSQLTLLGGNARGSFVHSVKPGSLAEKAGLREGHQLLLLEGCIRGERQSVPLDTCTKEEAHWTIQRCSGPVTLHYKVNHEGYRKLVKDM

[4] = target: T4, DLG3_1, Q92796
T4 sequence (Q92796 125-227, limits assumed, looked up): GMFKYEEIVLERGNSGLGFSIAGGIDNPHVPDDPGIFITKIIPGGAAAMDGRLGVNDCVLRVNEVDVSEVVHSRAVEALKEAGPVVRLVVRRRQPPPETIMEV

[5] = target: DLG4_1, P78352
Sequence of DLG4_1, P78352 (P78352 62-152): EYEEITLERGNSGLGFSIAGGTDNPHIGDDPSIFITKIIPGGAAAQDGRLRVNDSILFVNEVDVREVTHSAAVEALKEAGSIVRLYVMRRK

[6] = target: T5, FRMPD1, Q5SYB0
T5 sequence (Q5SYB0 52-145, limits assumed, looked up): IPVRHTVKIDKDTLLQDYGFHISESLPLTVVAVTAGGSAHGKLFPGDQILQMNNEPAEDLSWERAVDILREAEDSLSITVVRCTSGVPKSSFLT

[7] = target: FRMPD4, Q14CM0
Sequence of FRMPD4, Q14CM0 (Q14CM0 67-160): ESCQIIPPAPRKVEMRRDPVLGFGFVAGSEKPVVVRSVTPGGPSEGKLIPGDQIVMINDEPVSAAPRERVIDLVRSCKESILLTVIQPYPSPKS

[8] = target: GRID2IP_1, A4D2P6
Sequence of GRID2IP_1, A4D2P6 (A4D2P6 1-87): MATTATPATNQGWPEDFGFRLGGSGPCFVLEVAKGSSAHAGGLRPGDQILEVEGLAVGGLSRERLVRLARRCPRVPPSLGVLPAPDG

[9] = target: T6, GRIP1_5, Q9Y3R0
T6 sequence (Q9Y3R0 568-668, limits assumed, looked up): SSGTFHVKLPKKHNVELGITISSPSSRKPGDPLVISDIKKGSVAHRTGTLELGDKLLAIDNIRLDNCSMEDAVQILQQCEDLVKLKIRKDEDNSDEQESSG

[10] = target: T7, GRIP1_7, Q9Y3R0
T7 sequence (Q9Y3R0 999-1096, limits assumed, looked up): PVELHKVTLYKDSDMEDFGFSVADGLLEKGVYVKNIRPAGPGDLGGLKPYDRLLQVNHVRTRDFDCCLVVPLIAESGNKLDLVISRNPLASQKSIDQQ

[11] = target: IL16_4, Q14005
Sequence of IL16_4, Q14005 (Q14005 1229-1329): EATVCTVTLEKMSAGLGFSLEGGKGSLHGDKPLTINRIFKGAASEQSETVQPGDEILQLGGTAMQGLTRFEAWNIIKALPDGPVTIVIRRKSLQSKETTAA

[12] = target: Inadl_3, Q8NI35
Sequence of Inadl_3, Q8NI35 (Q8NI35 359-469): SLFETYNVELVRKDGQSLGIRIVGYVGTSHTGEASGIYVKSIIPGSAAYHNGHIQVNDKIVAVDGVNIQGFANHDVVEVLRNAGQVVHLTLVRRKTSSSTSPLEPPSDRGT

[13] = target: LDB3, O75112
Sequence of LDB3, O75112 (O75112 1-94): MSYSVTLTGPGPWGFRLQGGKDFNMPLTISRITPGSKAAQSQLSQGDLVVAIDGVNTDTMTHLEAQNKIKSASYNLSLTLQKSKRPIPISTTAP

[14] = target: T8, LIN7A, O14910
T8 sequence (O14910 103-200, limits assumed, looked up): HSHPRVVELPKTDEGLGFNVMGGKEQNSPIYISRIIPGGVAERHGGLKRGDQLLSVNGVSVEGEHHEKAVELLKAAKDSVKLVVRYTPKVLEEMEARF

[15] = target: MAGI2_3, Q86UL8
Sequence of MAGI2_3, Q86UL8 (Q86UL8 600-682): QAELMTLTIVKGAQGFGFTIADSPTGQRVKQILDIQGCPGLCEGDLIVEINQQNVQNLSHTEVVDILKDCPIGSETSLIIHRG

[16] = target: MAGI2_6, Q86UL8
Sequence of MAGI2_6, Q86UL8 (Q86UL8 1141-1229): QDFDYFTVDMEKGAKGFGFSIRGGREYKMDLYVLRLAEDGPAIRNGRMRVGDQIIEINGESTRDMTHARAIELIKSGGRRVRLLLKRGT

[17] = target: T9, MPDZ_12, O75970
T9 sequence (O75970 1857-1958, limits assumed, looked up): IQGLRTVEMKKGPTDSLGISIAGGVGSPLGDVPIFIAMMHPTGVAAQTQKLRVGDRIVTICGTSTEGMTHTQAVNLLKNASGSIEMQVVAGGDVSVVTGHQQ

[18] = target: T10, MPDZ_5, O75970
T10 sequence (O75970 695-796, limits assumed, looked up): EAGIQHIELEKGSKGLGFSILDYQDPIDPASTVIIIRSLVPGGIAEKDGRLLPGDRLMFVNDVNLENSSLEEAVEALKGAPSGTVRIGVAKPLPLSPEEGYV

[19] = target: T11, NHERF3_1, Q5T2W1
T11 sequence (Q5T2W1 4-100, limits assumed, looked up): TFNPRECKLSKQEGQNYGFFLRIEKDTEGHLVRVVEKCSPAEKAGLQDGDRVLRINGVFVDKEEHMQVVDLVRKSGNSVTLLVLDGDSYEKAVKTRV

[20] = target: NOS1, P29475
Sequence of NOS1, P29475 (P29475 9-101): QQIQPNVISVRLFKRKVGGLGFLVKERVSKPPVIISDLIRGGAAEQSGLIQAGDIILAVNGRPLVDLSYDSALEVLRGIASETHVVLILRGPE

[21] = target: T12, PARD3B_1, Q8TEW8
T12 sequence (Q8TEW8 196-299, limits assumed, looked up): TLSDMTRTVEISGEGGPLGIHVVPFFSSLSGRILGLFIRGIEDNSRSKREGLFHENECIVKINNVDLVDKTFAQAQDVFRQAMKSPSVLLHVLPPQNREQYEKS

[22] = target: PARD3_3, Q8TEW0
Sequence of PARD3_3, Q8TEW0 (Q8TEW0 582-685): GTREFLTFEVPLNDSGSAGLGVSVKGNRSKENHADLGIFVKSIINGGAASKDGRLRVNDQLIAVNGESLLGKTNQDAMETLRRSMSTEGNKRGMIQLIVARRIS

[23] = target: PDLIM1, O00151
Sequence of PDLIM1, O00151 (O00151 1-87): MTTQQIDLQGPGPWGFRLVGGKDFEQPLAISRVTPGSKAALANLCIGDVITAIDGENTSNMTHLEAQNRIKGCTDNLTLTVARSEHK

[24] = target: T13, PDZRN3_1, Q9UPQ7
T13 sequence (Q9UPQ7 244-349, limits assumed, looked up): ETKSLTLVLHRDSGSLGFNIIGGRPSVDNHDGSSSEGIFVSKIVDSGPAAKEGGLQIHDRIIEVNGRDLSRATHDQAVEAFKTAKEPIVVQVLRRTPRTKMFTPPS

[25] = plain residues with an end cap or a label only (N-terminal biotin on a linker: ahx)
[26] = plain residues with an end cap or a label only (N-terminal biotin on a linker: ttds)
[27] = plain residues with an end cap or a label only (N-terminal biotin on a linker: ado-ado)

With RNCSTNDSLL [ADRB2, P07550] the pKd [1, 25] was “below the threshold”, the pKd [2, 25] was “below the threshold” and the pKd [3, 25] was “below the threshold”. For the same binder, the pKd [4, 25] was “below the threshold”, the pKd [5, 25] was “below the threshold” and the pKd [6, 25] was “below the threshold”. The pKd [7, 25] was 3.64, the pKd [8, 25] was “below the threshold” and the pKd [9, 25] was “below the threshold”. For the same binder, the pKd [10, 25] was 3.48, the pKd [11, 25] was “below the threshold” and the pKd [12, 25] was 3.73. The pKd [13, 25] was “below the threshold”, the pKd [14, 25] was “below the threshold” and the pKd [15, 25] was “below the threshold”. The pKd [16, 25] was “below the threshold”, the pKd [17, 25] was “below the threshold” and the pKd [18, 25] was “below the threshold”. For the same binder, the pKd [19, 25] was 3.89, the pKd [20, 25] was “below the threshold” and the pKd [21, 25] was 3.75. For the same binder, the pKd [22, 25] was 3.79, the pKd [23, 25] was 3.77 and the pKd [24, 25] was 3.54.

For DPLTPSRSQL [DGKK, Q5KSL6], the pKd [1, 26] was “below the threshold”, the pKd [2, 26] was “below the threshold” and the pKd [3, 26] was “below the threshold”. The pKd [4, 26] was “below the threshold”, the pKd [5, 26] was “below the threshold” and the pKd [6, 26] was 3.73. The pKd [7, 26] was “below the threshold”, the pKd [8, 26] was “below the threshold” and the pKd [9, 26] was “below the threshold”. The pKd [10, 26] was “below the threshold”, the pKd [11, 26] was “below the threshold” and the pKd [12, 26] was “below the threshold”. The pKd [13, 26] was “below the threshold”, the pKd [14, 26] was “below the threshold” and the pKd [15, 26] was “below the threshold”. The pKd [16, 26] was “below the threshold”, the pKd [17, 26] was “below the threshold” and the pKd [18, 26] was “below the threshold”. For the same binder, the pKd [19, 26] was “below the threshold”, the pKd [20, 26] was “below the threshold” and the pKd [21, 26] was “below the threshold”. For the same binder, the pKd [22, 26] was “below the threshold”, the pKd [23, 26] was “below the threshold” and the pKd [24, 26] was “below the threshold”.

In the case of QKNKDKEYYV [NRXN3_rs746444206, Q9Y4C0], the pKd [1, 27] is reported as “below the threshold”, the pKd [2, 27] is reported as “below the threshold” and the pKd [3, 27] is reported as “below the threshold”. For the same binder, the pKd [4, 27] was “below the threshold”, the pKd [5, 27] was “below the threshold” and the pKd [6, 27] was “below the threshold”. For the same binder, the pKd [7, 27] was 4.18, the pKd [8, 27] was “below the threshold” and the pKd [9, 27] was “below the threshold”. The pKd [10, 27] was 4.55, the pKd [11, 27] was “below the threshold” and the pKd [12, 27] was 4. The pKd [13, 27] was “below the threshold”, the pKd [14, 27] was “below the threshold” and the pKd [15, 27] was “below the threshold”. The pKd [16, 27] was “below the threshold”, the pKd [17, 27] was “below the threshold” and the pKd [18, 27] was 4.34. The pKd [19, 27] was 4.43, the pKd [20, 27] was 3.88 and the pKd [21, 27] was 3.84. The pKd [22, 27] was 4.48, the pKd [23, 27] was “below the threshold” and the pKd [24, 27] was “below the threshold”.
